Measured values published in US20210253718A1, “FRIZZLED5 PROTEIN-BINDING AGENTS” (Modmab Therapeutics Corporation, priority 2016, published 2021).
Residue numbers refer to the chain shown, from its start.

T1: FZD8 CRD (Homo sapiens, UniProt Q9H461)
T1 construct: K31-D155; GPI anchor signal (C); expressed in transfected cells; host or cells: CHO cells, lentiviral pLenti-puro
T1 sequence (Q9H461 31-155): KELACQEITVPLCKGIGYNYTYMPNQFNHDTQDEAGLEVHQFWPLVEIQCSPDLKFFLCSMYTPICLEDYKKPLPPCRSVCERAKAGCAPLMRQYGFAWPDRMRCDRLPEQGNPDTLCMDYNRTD

T2: FZD6 CRD (Homo sapiens, UniProt O60353)
T2 construct: S20-P146; GPI anchor signal (C); expressed in transfected cells; host or cells: CHO cells, lentiviral pLenti-puro
T2 sequence (O60353 20-146): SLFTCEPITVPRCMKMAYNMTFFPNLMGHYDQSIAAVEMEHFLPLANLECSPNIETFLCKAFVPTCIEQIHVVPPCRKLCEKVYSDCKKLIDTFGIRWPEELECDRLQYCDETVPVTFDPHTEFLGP

T3: FZD5 CRD (Homo sapiens, UniProt Q13467)
T3 construct: K29-T156; GPI anchor signal (C); expressed in transfected cells; host or cells: CHO cells, lentiviral pLenti-puro
T3 sequence (Q13467 29-156): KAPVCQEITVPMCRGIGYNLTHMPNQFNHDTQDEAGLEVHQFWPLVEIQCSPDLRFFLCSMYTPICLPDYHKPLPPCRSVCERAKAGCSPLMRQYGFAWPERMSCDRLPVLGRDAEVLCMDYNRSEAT

B1: Fab-2905: anti-FZD5 Fab with antibody variable region Fv-2905; CDR SEQ ID NOs: 35, 36, 44, 83, 120, 157 (antibody, V domains shown)
VH: EVQLVESGGGLVQPGGSLRLSCAASGFNLSYYYMHWVRQAPGKGLEWVASIYSSYSYTSYADSVKGRFTISADTSKNTAYLQMNSLRAEDTAVYYCARSGYALDYWGQGTLVTVSS
VL: DIQMTQSPSSLSASVGDRVTITCRASQSVSSAVAWYQQKPGKAPKLLIYSASSLYSGVPSRFSGSRSGTDFTLTISSLQPEDFATYYCQQSSWYYGYPFTFGQGTKVEIK
B2: Fab-2902: anti-FZD5 Fab with antibody variable region Fv-2902; CDR SEQ ID NOs: 35, 36, 41, 80, 117, 153 (antibody, V domains shown)
VH: EVQLVESGGGLVQPGGSLRLSCAASGFNISYYYIHWVRQAPGKGLEWVASISSSSSSTSYADSVKGRFTISADTSKNTAYLQMNSLRAEDTAVYYCARGALDYWGQGTLVTVSS
VL: DIQMTQSPSSLSASVGDRVTITCRASQSVSSAVAWYQQKPGKAPKLLIYSASSLYSGVPSRFSGSRSGTDFTLTISSLQPEDFATYYCQQWYAFGALITFGQGTKVEIK
B3: Fab-2903: anti-FZD5 Fab with antibody variable region Fv-2903; CDR SEQ ID NOs: 35, 36, 42, 81, 118, 155 (antibody, V domains shown)
VH: B2 VH with I29L, S52Y, S53P, S54Y, S57Y, L101I
VL: B2 VL with Y92G, A93G, F94G, G95S, A96S, I98F

These molecules were tested on CHO cells not expressing Frizzled CRD (assay: Flow cytometry of anti-FZD5 Fab binding to CHO cells not expressing Frizzled CRD (background)). Conditions: not given.
Description: (§1) The binding of anti-FZD5 Fabs to cell surface-expressed Frizzled protein was further determined for each member of the Frizzled family via flow cytometry and immunofluorescence analysis of a panel of 10 CHO cell lines, each ectopically over-expressing the extracellular cysteine-rich domain (CRD) of a different Frizzled protein family member.

Molecule | Median fluorescence, Frizzled CRD overexpressed on CHO cells: None
B1 | 3.62
B2 | 4.66
B3 | 4.07

The molecules below were run on PATU8988S cells (assay: Effect of anti-FZD5 Fabs on proliferation of pancreatic cancer cell lines (percent growth inhibition)). Conditions: Fab 2 μg/ml.
Format: cell-based, human

Molecule | percent growth inhibition, PATU8988s 2 μg/ml [%]
B1 | −26.66
B2 | −15.75
B3 | −22.81

Each molecule was assayed on ASPC-1 cells in the same assay as above. Conditions: Fab 10 μg/ml.
Format: cell-based, human
Protocol: (§2) The effect of presently disclosed anti-FZD5 Fabs on proliferation of RNF43 loss-of-function mutant pancreatic cancer cell lines HPAFII, PATU8988S and ASPC-1; and on pancreatic cancer cell line RWP1, was tested at […] and 10 μg/ml.

Molecule | percent growth inhibition, ASPC-1 10 μg/ml [%]
B1 | −10.34
B2 | 17.39
B3 | 14.86

What follows are molecules tested on RWP1 cells in the same assay as above. Conditions: Fab 10 μg/ml.
Format: cell-based, human
Protocol: as §2

Molecule | percent growth inhibition, RWP1 10 μg/ml [%]
B1 | 41.10
B2 | 31.22
B3 | 17.38

The molecules below were run on HPAFII cells in the same assay as above. Conditions: Fab 2 μg/ml.
Format: cell-based, human
Protocol: as §2

Molecule | percent growth inhibition, HPAFII 2 μg/ml [%]
B1 | 0.41
B2 | 25.42
B3 | −10.34

Same assay, conditions: Fab 10 μg/ml

Molecule | percent growth inhibition, HPAFII 10 μg/ml [%]
B1 | −12.83
B2 | 21.81
B3 | −10.98

Each molecule was assayed on PATU8988S cells in the same assay as above. Conditions: Fab 10 μg/ml.
Format: cell-based, human
Protocol: as §2

Molecule | percent growth inhibition, PATU8988s 10 μg/ml [%]
B1 | −46.23
B2 | −32.61
B3 | −16.37

The molecules below were run on RWP1 cells in the same assay as above. Conditions: Fab 2 μg/ml.
Format: cell-based, human

Molecule | percent growth inhibition, RWP1 2 μg/ml [%]
B1 | 62.88
B2 | 26.56
B3 | 8.52

What follows are molecules tested on ASPC-1 cells in the same assay as above. Conditions: Fab 2 μg/ml.
Format: cell-based, human

Molecule | percent growth inhibition, ASPC-1 2 μg/ml [%]
B1 | −14.51
B2 | 10.84
B3 | 4.49

These molecules were tested against T4, FZD7 CRD (Homo sapiens, UniProt O75084) (assay: Immunofluorescence of anti-FZD5 Fab binding to CHO cells overexpressing Frizzled CRD). Conditions: not given.
T4 construct: D45-S169; GPI anchor signal (C); expressed in transfected cells; host or cells: CHO cells, lentiviral pLenti-puro
Parameters: key: −: no binding; +: very weak binder; ++: weak binder; +++: good binder; ++++: very good binder
Protocol: (§3) Plasmids: pLCKO lentiviral vector used for knockout (TKO) library construction and expression of individual gRNAs was constructed as described previously (Hart et al., 2015). Briefly, single guide RNA (sgRNA) scaffold was amplified from px330 (Addgene 42230) and cloned into pLKO.TRC005 lentiviral vector (Broad Institute, Cambridge, Mass.) using AgeI/EcoRI restriction sites. BfuAI sites were added at the 5′ end of the sgRNA scaffold for cloning the TKO library or individual gRNA target sequences. Lenti Cas9-2A-BsdR vector used to generate Cas9 stable expression cell lines was constructed as described previously (Hart et al., 2015). Briefly, lentiCRISPR pXPR_001 (Addgene 49535) was modified through removal of the sgRNA scaffold region through NdeI/EcoRI digest and blunt ends generation using Large Klenow Fragment (NEB). 2A-puro was replaced with 2A-BsdR by PCR using the NheI/MluI sites. Each of the 10 human Frizzled cysteine rich domains (CRDs) were cloned into the lentiviral expression plasmid pLenti-puro in the following cassette: FZD_CRD-MYC-GPI.
(§4) To confirm that the FZD5-WNT7B circuit is not driven simply by expression and rule out the possibility of a disconnect between RNA and protein levels for the Wnt receptors in HPAF-II cells, a panel of recombinant Fabs were generated, alternatively referred to herein as ‘Frizzled profiler’, that can detect and discriminate all but one of the ten Frizzled receptors. […] To characterize the binding specificity of these Fabs on cells, a panel of 10 CHO cell lines was generated, each expressing the CRD domain of a different myc-tagged Frizzled family member anchored at the plasma membrane through a GPI anchor (CHO-myc-FZDGPI). Despite the high sequence identity between Frizzled family members (FIG. 7A, FIG. 7B), selective Fabs were identified for FZD4, FZD5, FZD6 and FZD10 as assessed by immunofluorescence and flow cytometry (FIG. 7D and FIG. 8). […] The FZD8 CRD is most homologous to that of FZD5 (FIG. 7B). These Fabs can be used to discriminate expression of FZD1, FZD2, FZD4, FZD5, FZD6, FZD7, FZD8, FZD9 and FZD10 (FIG. 7D and FIG. 8). The ‘Frizzled profiler’ therefore consists of 10 different Fabs that can be used to discriminate expression of 9 different Frizzled family members. The Frizzled profiler was then used to confirm that HPAF-II cells express FZD1, FZD5, FZD6 and possibly FZD8 (FIG. 7E).
as §1

Molecule | Immunofluorescence binding, Frizzled CRD overexpressed on CHO cells: FZD7
B1 | +
B2 | +
B3 | ++

Each molecule was assayed against T5, FZD2 CRD (Homo sapiens, UniProt Q14332) in the same assay as above. Conditions: not given.
T5 construct: D35-P161; GPI anchor signal (C); expressed in transfected cells; host or cells: CHO cells, lentiviral pLenti-puro
Parameters: key: −: no binding; +: very weak binder; ++: weak binder; +++: good binder; ++++: very good binder
Protocol: as §3, §4, §1

Molecule | Immunofluorescence binding, Frizzled CRD overexpressed on CHO cells: FZD2
B1 | −
B2 | −
B3 | −

The molecules below were run against T1, FZD8 CRD in the same assay as above. Conditions: not given.
Parameters: key: −: no binding; +: very weak binder; ++: weak binder; +++: good binder; ++++: very good binder
Protocol: as §3, §4, §1

Molecule | Immunofluorescence binding, Frizzled CRD overexpressed on CHO cells: FZD8
B1 | −
B2 | ++
B3 | +

These molecules were tested against T2, FZD6 CRD in the same assay as above. Conditions: not given.
Parameters: key: −: no binding; +: very weak binder; ++: weak binder; +++: good binder; ++++: very good binder
Protocol: as §3, §4, §1

Molecule | Immunofluorescence binding, Frizzled CRD overexpressed on CHO cells: FZD6
B1 | −
B2 | −
B3 | −

What follows are molecules tested against T3, FZD5 CRD in the same assay as above. Conditions: not given.
Parameters: key: −: no binding; +: very weak binder; ++: weak binder; +++: good binder; ++++: very good binder
Protocol: as §3, §4, §1

Molecule | Immunofluorescence binding, Frizzled CRD overexpressed on CHO cells: FZD5
B1 | +
B2 | ++++
B3 | ++++
